Source: patent US20250326863A1

Biological target: human IgG
Assay: bio-layer interferometry

Kd: 100 nM
B1: recombinant monoclonal low affinity rheumatoid factor RF^low (human IgM; RC1 of Youngblood et al. 1994) (antibody, V domains shown)
VH: QVQLVQSGGGVVQPGRSLRLSCAASGFTFSSYAMHWVRQAPGKGLEWVAVISYDGSNKYYAESVKGRFTISRDNSKNTLYLRMNSLRTEETAVYYCARDGDVGSYGPGTYYPIDYWGQGTLVSVSP
VL: EIVLTQSPATLSLSPGERATLSCRASQSVSSYLAWYQEKPGTAPRLLIYDASNRATGIPARFSGSGSGTDFTLTISSLEPEDFAVYYCQQRRNWPLTFGPGTKVDIK
